Assay [1] has as its target γ-secretase (detergent-solubilized membranes from HeLa cells). The assay can be described thus: cell-based or functional assay.
Assay [2] deals with γ-secretase in Chinese hamster ovary (CHO) cells stably transfected with human APP. The assay is described as follows: cell-based or functional assay.

Starred links: 1 amine or outer side, 2 acyl side, 3 side chain; linkers in the order of their positions; H or OH if unused. Non-standard residues stand in square brackets, D forms with d. *: point of attachment. dThr(OBz) = D-threonine with an O-benzyl (OBz) group, C[C@H](OCc1ccccc1)[C@@H](N[*:1])C(=O)[*:2]; Thr(OBz) = threonine with O-benzyl ester (OBz); Boc = CC(C)(C)OC(=O)*; Aib = CC(C)(N)C(=O)O

For Boc-G[Aib]VVI[Aib][Thr(OBz)]V[Aib]VI[Aib]-OMe [L-peptide Boc-Gly-Aib-Val-Val-Ile-Aib-Thr(OBz)-Val-Aib-Val-Ile-Aib-OMe (SEQ ID NO:17)], in assay [1], the “Cell-free Assay IC50 (concentration required for 50% inhibition of Aβ40 production)” value amounted to 360 nM.

Take Boc-[Aib]VVI[Aib][Thr(OBz)]V[Aib]-OMe [Boc-Aib-Val-Val-Ile-Aib-Thr(OBz)-Val-Aib-OMe (SEQ ID NO:8), all-L]: the “IC50 (concentration that reduced production of total Aβ by 50% in CHO cells stably transfected with human APP)” value in assay [2] came out at 6000 nM.

B1: D-peptide Boc-Val-Val-Ile-Aib-Thr(OBz)-Val-Aib-Val-Ile-Aib-OMe (SEQ ID NO:15) (peptide)
peptide: Boc-[dV][dV][dI][Aib][dThr(OBz)][dV][Aib][dV][dI][Aib]-OMe
SMILES: CC[C@@H](C)[C@@H](NC(=O)[C@H](NC(=O)[C@H](NC(=O)OC(C)(C)C)C(C)C)C(C)C)C(=O)NC(C)(C)C(=O)N[C@@H](C(=O)N[C@@H](C(=O)NC(C)(C)C(=O)N[C@@H](C(=O)N[C@@H](C(=O)NC(C)(C)C(=O)OC)[C@H](C)CC)C(C)C)C(C)C)[C@H](C)OCc1ccccc1
As to B1, in assay [1], the “Cell-free Assay IC50 (concentration required for 50% inhibition of Aβ40 production)” value worked out at 25 nM.

Consider Boc-V[Aib]IA[Thr(OBz)][Aib]IV[Aib]-OMe [Boc-Val-Aib-Ile-Ala-Thr(OBz)-Aib-Ile-Val-Aib-OMe (SEQ ID NO:4), all-L], for which the “IC50 (concentration that reduced production of total Aβ by 50% in CHO cells stably transfected with human APP)” value in assay [2] turned out to be 2000 nM.

On to Boc-L[Aib]VG[Aib]VVI[Aib][Thr(OBz)]V[Aib]VI[Aib]-OMe [L-peptide Boc-Leu-Aib-Val-Gly-Aib-Val-Val-Ile-Aib-Thr(OBz)-Val-Aib-Val-Ile-Aib-OMe (SEQ ID NO:20)], for which the “Cell-free Assay IC50 (concentration required for 50% inhibition of Aβ40 production)” value in assay [1] came out at 4700 nM.

In the case of Boc-VI[Aib][Thr(OBz)]V[Aib]-OMe [Boc-Val-Ile-Aib-Thr(OBz)-Val-Aib-OMe (SEQ ID NO:6), all-L], the “IC50 (concentration that reduced production of total Aβ by 50% in CHO cells stably transfected with human APP)” value in assay [2] worked out at 12000 nM.

B2: D-peptide Boc-Gly-Leu-Aib-Val-Gly-Aib-Val-Val-Ile-Aib-Thr(OBz)-Val-Aib-Val-Ile-Aib-OMe (SEQ ID NO:21) (peptide)
peptide: Boc-G[dL][Aib][dV]G[Aib][dV][dV][dI][Aib][dThr(OBz)][dV][Aib][dV][dI][Aib]-OMe
SMILES: CC[C@@H](C)[C@@H](NC(=O)[C@H](NC(=O)[C@H](NC(=O)C(C)(C)NC(=O)CNC(=O)[C@H](NC(=O)C(C)(C)NC(=O)[C@@H](CC(C)C)NC(=O)CNC(=O)OC(C)(C)C)C(C)C)C(C)C)C(C)C)C(=O)NC(C)(C)C(=O)N[C@@H](C(=O)N[C@@H](C(=O)NC(C)(C)C(=O)N[C@@H](C(=O)N[C@@H](C(=O)NC(C)(C)C(=O)OC)[C@H](C)CC)C(C)C)C(C)C)[C@H](C)OCc1ccccc1
Consider B2, for which the “Cell-free Assay IC50 (concentration required for 50% inhibition of Aβ40 production)” value in assay [1] stood at 26 nM.

For Boc-VG[Aib]VVI[Aib][Thr(OBz)]V[Aib]VI[Aib]-OMe [L-peptide Boc-Val-Gly-Aib-Val-Val-Ile-Aib-Thr(OBz)-Val-Aib-Val-Ile-Aib-OMe (SEQ ID NO:18)], in assay [1], the “Cell-free Assay IC50 (concentration required for 50% inhibition of Aβ40 production)” value amounted to 780 nM.

Turning to Boc-A[Thr(OBz)][Aib]IV[Aib]-OMe [Boc-Ala-Thr(OBz)-Aib-Ile-Val-Aib-OMe (SEQ ID NO:1), all-L], the “IC50 (concentration that reduced production of total Aβ by 50% in CHO cells stably transfected with human APP)” value in assay [2] came out at 25000 nM.

Consider Boc-VVI[Aib][Thr(OBz)]V[Aib]VI[Aib]-OMe [L-peptide Boc-Val-Val-Ile-Aib-Thr(OBz)-Val-Aib-Val-Ile-Aib-OMe (SEQ ID NO:15)], for which the “Cell-free Assay IC50 (concentration required for 50% inhibition of Aβ40 production)” value in assay [1] amounted to 10000 nM.

Take Boc-VG[Aib]VVI[Aib][Thr(OBz)]V[Aib]-OMe [Boc-Val-Gly-Aib-Val-Val-Ile-Aib-Thr(OBz)-Val-Aib-OMe (SEQ ID NO:10), all-L]: the “IC50 (concentration that reduced production of total Aβ by 50% in CHO cells stably transfected with human APP)” value in assay [2] was determined as 3000 nM.

B3: D-peptide Boc-Gly-Aib-Val-Val-Ile-Aib-Thr(OBz)-Val-Aib-Val-Ile-Aib-OMe (SEQ ID NO:17) (peptide)
peptide: Boc-G[Aib][dV][dV][dI][Aib][dThr(OBz)][dV][Aib][dV][dI][Aib]-OMe
SMILES: CC[C@@H](C)[C@@H](NC(=O)[C@H](NC(=O)[C@H](NC(=O)C(C)(C)NC(=O)CNC(=O)OC(C)(C)C)C(C)C)C(C)C)C(=O)NC(C)(C)C(=O)N[C@@H](C(=O)N[C@@H](C(=O)NC(C)(C)C(=O)N[C@@H](C(=O)N[C@@H](C(=O)NC(C)(C)C(=O)OC)[C@H](C)CC)C(C)C)C(C)C)[C@H](C)OCc1ccccc1
B3: the “Cell-free Assay IC50 (concentration required for 50% inhibition of Aβ40 production)” value in assay [1] is 12 nM.

For the molecule Boc-[Aib]IA[Thr(OBz)][Aib]IV[Aib]-OMe [Boc-Aib-Ile-Ala-Thr(OBz)-Aib-Ile-Val-Aib-OMe (SEQ ID NO:3), all-L], in assay [2], the “IC50 (concentration that reduced production of total Aβ by 50% in CHO cells stably transfected with human APP)” value is 10000 nM.

The values above are taken from patent US20050272659A1 (BRIGHAM AND WOMEN S HOSPITAL, published 2005).
